From patent US20250333534A1 (HEFEI TG IMMUNOPHARMA, published 2025)
Where a chain is given by its changes, count along the chain named.

T1: Human CD155 protein (Human CD155), expressed on cells (human, UniProt P15151 21-417)
T1 construct: also called CHO-K1-human CD155; CHO-K1-CD155
T1 sequence: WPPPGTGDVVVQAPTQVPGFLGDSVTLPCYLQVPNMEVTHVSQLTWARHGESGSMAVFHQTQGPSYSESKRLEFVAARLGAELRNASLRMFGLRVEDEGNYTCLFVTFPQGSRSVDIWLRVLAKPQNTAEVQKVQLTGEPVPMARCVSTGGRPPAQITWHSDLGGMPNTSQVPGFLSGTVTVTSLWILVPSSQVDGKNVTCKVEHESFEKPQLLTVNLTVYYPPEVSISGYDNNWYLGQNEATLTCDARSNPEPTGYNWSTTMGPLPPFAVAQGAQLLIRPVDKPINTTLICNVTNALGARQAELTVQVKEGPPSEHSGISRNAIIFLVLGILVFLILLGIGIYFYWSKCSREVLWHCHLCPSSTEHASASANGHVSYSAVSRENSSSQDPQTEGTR

B1: murine CD155 antibody (mutgi1005) (antibody, mouse IgG2a)
heavy: QVQMQQSGAELVKPGASVKLSCKTSGFTFSSSYISWLKQKPGQSLEWIAWIYAGTGDTNYNQKFTGKAQVTVDTSSSTAYMQFSSLTTEDSAIYYCVRHGSTGRGWYFAVWGAGTTVTVSSAKTTAPSVYPLAPVCGDTTGSSVTLGCLVKGYFPEPVTLTWNSGSLSSGVHTFPAVLQSDLYTLSSSVTVTSSTWPSQSITCNVAHPASSTKVDKKIEPRGPTIKPCPPCKCPAPNLLGGPSVFIFPPKIKDVLMISLSPIVTCVVVDVSEDDPDVQISWFVNNVEVHTAQTQTHREDYNSTLRVVSALPIQHQDWMSGKEFKCKVNNKDLPAPIERTISKPKGSVRAPQVYVLPPPEEEMTKKQVTLTCMVTDFMPEDIYVEWTNNGKTELNYKNTEPVLDSDGSYFMYSKLRVEKKNWVERNSYSCSVVHEGLHNHHTTKSFSRTPGK
light: QAVVTQESALTTSPGETVTLTCRSSTGAVTTSNYANWVQEKPDHLFTGLIGGTNNRAPGVPARFSGSLIGDKAALTITGAQTEDEAIYFCALWYSNHFVFGGGTKLTVLQPKSSPSVTLFPPSSEELETNKATLVCTITDFYPGVVTVDWKVDGTPVTQGMETTQPSKQSNNKYMASSYLTLTARAWERHSSYSCQVTHEGHTVEKSLSRADCS
notes: also called murine monoclonal antibody; murine antibody
B2: affinity-matured humanized antibody V21 (tgi1005 V21-hIgG1/4) (antibody, V domains shown)
VH: QVQLVQSGAEVKKPGASVKVSCKASGYTFTSSYISWVRQAPGQGLEWIAWIYAGTGDTNYNQKFTGRVTMTTDTSTSTAYMELRSLRSDDTAVYYCARHGYTGRGWYFAVWGQGTTVTVSS
VL: QAVVTQEPSLTVSPGGTVTLTCRSSTGAVTTSNYANWVQQKPGQAFRGLIGGTNNRAPGVPARFSGSLLGDKAALTLSGAQPEDEAEYYCILWYSNHFVFGGGTKLTVL
B3: affinity-matured humanized antibody V40 (tgi1005 V40-hIgG1/4) (antibody, V domains shown)
VH: B2 VH with Y101M
VL: B2 VL with Y34L, G52H, H97K
B4: affinity-matured humanized antibody V20 (tgi1005 V20-hIgG1/4/1LALA) (antibody, V domains shown)
VH: B2 VH
VL: B2 VL with Y34L, G52H, I91A, H97K
B5: affinity-matured humanized antibody V28 (tgi1005 V28-hIgG1/4/1LALA) (antibody, V domains shown)
VH: B2 VH with Y101L, G105H
VL: B2 VL with Y34I, A57G, H97K
B6: human-mouse chimeric antibody mutgi1005-hIgG4 (antibody)
heavy: not shown
light: QAVVTQESALTTSPGETVTLTCRSSTGAVTTSNYANWVQEKPDHLFTGLIGGTNNRAPGVPARFSGSLIGDKAALTITGAQTEDEAIYFCALWYSNHFVFGGGTKLTVLGQPKAAPSVTLFPPSSEELQANKATLVCLISDFYPGAVTVAWKADSSPVKAGVETTTPSKQSNNKYAASSYLSLTPEQWKSHRSYSCQVTHEGSTVEKTVAPTECS
notes: Murine variable regions fused with wild-type human IgG4 and lambda constant regions; also called mutgi1005-hlgG4; chimeric CD155 antibody
B7: human-mouse chimeric antibody mutgi1005-hIgG1 (antibody)
heavy: not shown
light: B6 light
notes: Murine variable regions fused with wild-type human IgG1 and lambda constant regions; also called chimeric CD155 antibody

What follows are binders tested against T1, Human CD155 protein (Human CD155), … (assay: flow cytometry on CHO-K1-human CD155 cells).

| binding result | Binder |
| --- | --- |
| binds | B1 |
| binds | B2 |
| binds | B3 |
| binds | B4 |
| binds | B5 |
| binds | B6 |
| binds | B7 |
